The target of test [1] is T1, human FcRn/b2M (human, UniProt P61769 21-119, biotinylated).
T1 construct: bought recombinant biotinylated protein (ACRO FCM-H82W4 or Immunitrack ITF01); also called hFcRn; hFcRn/hb2M
As to the kind of experiment: SPR pH 6.0.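 Further: surface plasmon resonance kinetics at 25 °C, diluted periplasmic extracts injected over immobilized ligand surfaces, 120 s association then 600–3600 s dissociation, running buffer containing 150 mM NaCl.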
Description: (§1) All kinetic measurements have been performed on ProteOn XPR36 (BioRad Laboratories, Inc.), MASS-2 (Sierra sensors, Gmbh) or SPR-32 (Bruker Corporation). […] The phytip purified periplasmic extracts were diluted 1:10 in running buffer (CPA+150 mM NaCl+0.005% Tw20 at pH 5.5, pH 6.0 or pH 7.4) and injected over the ligand surfaces (association: 120 s at 45 μL/min; dissociation: 600s-3600 s at 45 μL/min). Experiments were carried out at 25° C.

For test [2], the target named is T2, cyno FcRn/b2M (cyno, UniProt Q8SPV9 24-297; Q8SPW0 21-119, biotinylated).
T2 construct: bought recombinant biotinylated protein (Immunitrack ITF05 or ACRO FCM-C82W5); also called cFcRn; cFcRn/cb2M
As to the kind of experiment: SPR pH 6.0.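 Further: surface plasmon resonance kinetics at 25 °C, diluted periplasmic extracts injected over immobilized ligand surfaces, 120 s association then 600–3600 s dissociation, running buffer containing 150 mM NaCl.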
Description: as §1

Test [3] has as its target T1, human FcRn/b2M. As to the kind of experiment: SPR pH 7.4.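 Further: surface plasmon resonance kinetics, periplasmic extracts diluted 1:10 flowed over immobilized target at 25 °C, 120 s association then 600–3600 s dissociation, buffer with 150 mM NaCl.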
Description: as §1
Test [4] has as its target T2, cyno FcRn/b2M. The experiment in a line: SPR pH 7.4.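 Further: surface plasmon resonance kinetics, periplasmic extracts diluted 1:10 flowed over immobilized target at 25 °C, 120 s association then 600–3600 s dissociation, buffer with 150 mM NaCl.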
Description: as §1
Test [5] concerns the target T1, human FcRn/b2M. The experiment in a line: SPR off-rate; pH 7.4 vs pH 6.0.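 Further: surface plasmon resonance with diluted periplasmic extracts flowed over ligand surfaces, 120 s association and 600–3600 s dissociation at 25 °C, running buffer containing 150 mM NaCl.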
Description: as §1
Test [6] has as its target T2, cyno FcRn/b2M. The experiment in a line: SPR off-rate; pH 7.4 vs pH 6.0.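 Further: surface plasmon resonance with diluted periplasmic extracts flowed over ligand surfaces, 120 s association and 600–3600 s dissociation at 25 °C, running buffer containing 150 mM NaCl.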
Description: as §1

T2 sequence (Q8SPV9 24-297 limits assumed, chain 1 of 2): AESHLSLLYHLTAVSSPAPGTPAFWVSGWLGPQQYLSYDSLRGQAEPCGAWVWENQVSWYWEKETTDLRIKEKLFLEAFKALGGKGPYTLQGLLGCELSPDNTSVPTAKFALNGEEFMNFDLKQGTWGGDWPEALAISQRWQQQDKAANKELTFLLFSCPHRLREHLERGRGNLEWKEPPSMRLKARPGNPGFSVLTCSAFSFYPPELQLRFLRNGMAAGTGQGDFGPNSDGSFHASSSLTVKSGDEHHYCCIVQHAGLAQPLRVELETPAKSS
T2 sequence (Q8SPW0 21-119 limits assumed, chain 2 of 2): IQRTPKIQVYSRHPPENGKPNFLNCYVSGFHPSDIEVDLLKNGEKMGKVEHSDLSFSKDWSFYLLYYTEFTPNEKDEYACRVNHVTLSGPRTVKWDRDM
T1 sequence (chain, as listed by the source limits assumed, chain 1 of 2): as the sequence (Q8SPV9 24-297 limits assumed, chain 1 of 2) above, with D39N, Q44E, S99G, G189S, N190S, M217L, T269S counted along it
T1 sequence (P61769 21-119 limits assumed, chain 2 of 2): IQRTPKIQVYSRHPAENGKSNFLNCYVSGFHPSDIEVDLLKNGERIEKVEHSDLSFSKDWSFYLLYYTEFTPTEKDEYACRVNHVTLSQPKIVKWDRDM

B1: T0263018B11 G26Q (VHH, name in Kabat numbering)
VHH: EVQLVESGGGVVQPGGSLRLSCAASQFTFSSYAMYWVRQAPGKGLEWVSAISSGGGSTDYADSVKGRFTISRDNSKNTLYLQMNSLRPEDTALYYCAADTLYTSLTWYSYWGQGTLVTVSS
notes: FLAG3-His6 tagged
As to B1, the koff in test [1] turned out to be 0.00065 s⁻¹; in test [2] it was 1.3e-05 s⁻¹; in test [3] it was 0.034 s⁻¹; in test [4] it was 0.026 s⁻¹. For the same molecule, the “kd ratio pH 7.4/6.0” value in test [5] turned out to be 53; in test [6], 2010.

B2: T0263018B11 G55D (VHH, name in Kabat numbering)
VHH: EVQLVESGGGVVQPGGSLRLSCAASGFTFSSYAMYWVRQAPGKGLEWVSAISSGGDSTDYADSVKGRFTISRDNSKNTLYLQMNSLRPEDTALYYCAADTLYTSLTWYSYWGQGTLVTVSS
notes: FLAG3-His6 tagged
As for B2, the koff in test [1] amounted to 0.0017 s⁻¹; in test [2] it was 0.0013 s⁻¹; in test [3] it was 0.07 s⁻¹; in test [4], 0.07 s⁻¹. Besides, the figures for the “kd ratio pH 7.4/6.0” value in test [5] and in test [6] were 41 and 54, respectively.

B3: T0263018B11 G26Y (VHH, name in Kabat numbering)
VHH: EVQLVESGGGVVQPGGSLRLSCAASYFTFSSYAMYWVRQAPGKGLEWVSAISSGGGSTDYADSVKGRFTISRDNSKNTLYLQMNSLRPEDTALYYCAADTLYTSLTWYSYWGQGTLVTVSS
notes: FLAG3-His6 tagged
Consider B3, for which the koff in test [1] turned out to be 0.00065 s⁻¹; in test [2] it was 0.00055 s⁻¹; in test [3] it was 0.027 s⁻¹; in test [4], 0.028 s⁻¹. For the same molecule, the “kd ratio pH 7.4/6.0” value came to 42 in test [5] and 51 in test [6].

B4: T0263018B11 G54P (VHH, name in Kabat numbering)
VHH: EVQLVESGGGVVQPGGSLRLSCAASGFTFSSYAMYWVRQAPGKGLEWVSAISSGPGSTDYADSVKGRFTISRDNSKNTLYLQMNSLRPEDTALYYCAADTLYTSLTWYSYWGQGTLVTVSS
notes: FLAG3-His6 tagged
Turning to B4, the koff turned out to be 0.0016 s⁻¹ in test [1], 0.0017 s⁻¹ in test [2], 0.033 s⁻¹ in test [3] and 0.041 s⁻¹ in test [4]. The “kd ratio pH 7.4/6.0” value turned out to be 21 in test [5] and 24 in test [6].

B5: T0263018B11 G54E (VHH, name in Kabat numbering)
VHH: EVQLVESGGGVVQPGGSLRLSCAASGFTFSSYAMYWVRQAPGKGLEWVSAISSGEGSTDYADSVKGRFTISRDNSKNTLYLQMNSLRPEDTALYYCAADTLYTSLTWYSYWGQGTLVTVSS
notes: FLAG3-His6 tagged
With B5, the koff in test [1] worked out at 0.0016 s⁻¹; in test [2], 0.0016 s⁻¹; in test [3] it was 0.046 s⁻¹; in test [4] it was 0.062 s⁻¹. Also, the “kd ratio pH 7.4/6.0” value was determined as 29 in test [5] and 39 in test [6].

B6: T0263018B11 G26S (VHH, name in Kabat numbering)
VHH: EVQLVESGGGVVQPGGSLRLSCAASSFTFSSYAMYWVRQAPGKGLEWVSAISSGGGSTDYADSVKGRFTISRDNSKNTLYLQMNSLRPEDTALYYCAADTLYTSLTWYSYWGQGTLVTVSS
notes: FLAG3-His6 tagged
With B6, the koff turned out to be 0.00091 s⁻¹ in test [1], 0.00079 s⁻¹ in test [2], 0.047 s⁻¹ in test [3] and 0.053 s⁻¹ in test [4]. Moreover, the entries for the “kd ratio pH 7.4/6.0” value in test [5] and in test [6] were 52 and 67, respectively.

B7: T0263018B11 G54L (VHH, name in Kabat numbering)
VHH: EVQLVESGGGVVQPGGSLRLSCAASGFTFSSYAMYWVRQAPGKGLEWVSAISSGLGSTDYADSVKGRFTISRDNSKNTLYLQMNSLRPEDTALYYCAADTLYTSLTWYSYWGQGTLVTVSS
notes: FLAG3-His6 tagged
In the case of B7, the koff in test [1] was 0.0016 s⁻¹; in test [2], 0.0017 s⁻¹; in test [3] it was 0.041 s⁻¹; in test [4], 0.06 s⁻¹. Also, the “kd ratio pH 7.4/6.0” value turned out to be 26 in test [5] and 35 in test [6].

B8: T0263018B11 L100aM (VHH, name in Kabat numbering)
VHH: EVQLVESGGGVVQPGGSLRLSCAASGFTFSSYAMYWVRQAPGKGLEWVSAISSGGGSTDYADSVKGRFTISRDNSKNTLYLQMNSLRPEDTALYYCAADTLYTSMTWYSYWGQGTLVTVSS
notes: FLAG3-His6 tagged
B8: the koff in test [1] was determined as 0.015 s⁻¹; in test [2], 0.013 s⁻¹; in test [3], 0.62 s⁻¹; in test [4] it was 0.51 s⁻¹. In addition, the figures for the “kd ratio pH 7.4/6.0” value in test [5] and in test [6] were 42 and 41, respectively.

In general, koff refers to the first-order rate constant of dissociation. Read a high koff as fast dissociation.

Values taken from US20240132624A1 (Ablynx, published 2024).
